Laboratory results from US20230382979A1 (ADAPTIVE BIOTECHNOLOGIES, published 2023).

Legend:
[1] = molecular target: T1, SARS-CoV-2 nucleocapsid (N) protein (SARS-CoV-2, UniProt P0DTC9 1-419); experiment: ELISA, antibody at 0.1 ug/mL
[2] = molecular target: T2, S2 subunit of the SARS-CoV-2 spike protein, WA01/2020 strain (SARS-CoV-2, WA01/2020 strain, UniProt P0DTC2 686-1213); experiment: ELISA, antibody at 0.1 ug/mL
MERS-COV (S1+S2) = molecular target: T3, MERS-COV (S1+S2); experiment: dose-response ELISA on coated spike antigen
T3 chain: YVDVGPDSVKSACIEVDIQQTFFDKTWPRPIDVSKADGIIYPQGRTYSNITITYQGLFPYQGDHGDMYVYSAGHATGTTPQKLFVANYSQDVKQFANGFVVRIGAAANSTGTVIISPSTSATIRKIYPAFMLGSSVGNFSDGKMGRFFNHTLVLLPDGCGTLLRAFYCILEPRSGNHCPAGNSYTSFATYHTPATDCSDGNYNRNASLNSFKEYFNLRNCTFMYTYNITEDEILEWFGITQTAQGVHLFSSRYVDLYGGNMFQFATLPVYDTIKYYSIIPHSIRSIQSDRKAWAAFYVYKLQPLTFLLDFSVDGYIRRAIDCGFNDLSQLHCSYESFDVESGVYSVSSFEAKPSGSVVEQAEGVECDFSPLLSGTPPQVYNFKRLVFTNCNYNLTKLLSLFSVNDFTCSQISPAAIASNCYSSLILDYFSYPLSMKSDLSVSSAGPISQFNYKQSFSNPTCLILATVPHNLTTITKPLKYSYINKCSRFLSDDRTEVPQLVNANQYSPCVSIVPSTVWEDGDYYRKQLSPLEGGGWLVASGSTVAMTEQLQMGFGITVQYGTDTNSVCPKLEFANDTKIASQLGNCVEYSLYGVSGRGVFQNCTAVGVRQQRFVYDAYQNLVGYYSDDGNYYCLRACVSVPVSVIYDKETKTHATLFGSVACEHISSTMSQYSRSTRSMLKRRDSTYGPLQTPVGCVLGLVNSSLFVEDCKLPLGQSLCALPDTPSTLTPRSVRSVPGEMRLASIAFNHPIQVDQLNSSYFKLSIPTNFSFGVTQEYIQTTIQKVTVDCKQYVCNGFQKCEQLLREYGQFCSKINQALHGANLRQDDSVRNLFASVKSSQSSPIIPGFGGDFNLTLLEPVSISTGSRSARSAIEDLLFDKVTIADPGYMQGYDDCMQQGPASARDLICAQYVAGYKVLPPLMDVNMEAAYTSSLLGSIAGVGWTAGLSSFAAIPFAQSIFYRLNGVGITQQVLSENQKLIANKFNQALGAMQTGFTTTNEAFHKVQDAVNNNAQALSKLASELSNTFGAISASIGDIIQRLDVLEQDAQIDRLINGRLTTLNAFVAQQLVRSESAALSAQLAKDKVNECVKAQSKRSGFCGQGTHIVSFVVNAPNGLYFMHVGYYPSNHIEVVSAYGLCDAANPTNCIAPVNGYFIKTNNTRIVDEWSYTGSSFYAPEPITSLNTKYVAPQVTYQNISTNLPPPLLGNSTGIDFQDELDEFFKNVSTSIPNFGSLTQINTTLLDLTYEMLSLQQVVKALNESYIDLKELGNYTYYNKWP

MERS-COV (S2) = molecular target: T4, MERS-COV (S2); experiment: dose-response ELISA on coated spike antigen
T4 chain: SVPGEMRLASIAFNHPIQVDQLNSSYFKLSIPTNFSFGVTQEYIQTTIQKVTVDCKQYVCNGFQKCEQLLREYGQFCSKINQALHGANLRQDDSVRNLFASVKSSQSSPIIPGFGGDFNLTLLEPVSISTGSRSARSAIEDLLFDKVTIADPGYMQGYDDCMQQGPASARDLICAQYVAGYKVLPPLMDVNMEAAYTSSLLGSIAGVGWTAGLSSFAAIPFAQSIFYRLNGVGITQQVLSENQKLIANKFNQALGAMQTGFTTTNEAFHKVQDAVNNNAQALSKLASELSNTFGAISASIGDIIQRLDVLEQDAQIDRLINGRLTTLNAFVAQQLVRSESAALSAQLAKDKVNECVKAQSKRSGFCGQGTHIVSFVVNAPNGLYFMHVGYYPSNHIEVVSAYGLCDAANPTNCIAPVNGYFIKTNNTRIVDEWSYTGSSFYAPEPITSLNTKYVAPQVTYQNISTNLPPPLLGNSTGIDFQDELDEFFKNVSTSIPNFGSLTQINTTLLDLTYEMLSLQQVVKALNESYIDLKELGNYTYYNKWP

[3] = molecular target: SARS-CoV-2 spike protein, WA1/2020, borne on lentiviral pseudovirus (SARS-CoV-2, WA01/2020 strain, UniProt P0DTC2 14-1273); experiment: cell-based or functional assay
[4] = molecular target: T2, S2 subunit of the SARS-CoV-2 spike …; experiment: dose-response ELISA on coated spike antigen
[5] = molecular target: T1, SARS-CoV-2 nucleocapsid (N) protein; experiment: ELISA, antibody at 0.1 ug/mL; remark: listed apart in the source
[6] = molecular target: T5, S1 subunit of the SARS-CoV-2 spike protein, WA01/2020 strain (SARS-CoV-2, WA01/2020 strain, UniProt P0DTC2 16-685); experiment: dose-response ELISA on coated antigen
[7] = molecular target: T6, SARS-CoV-2 spike (S) protein trimer, WA01/2020 strain (SARS-CoV-2, WA01/2020 strain, UniProt P0DTC2 16-1213); experiment: dose-response ELISA on coated antigen
[8] = molecular target: T5, S1 subunit of the SARS-CoV-2 spike …
[9] = molecular target: T5, S1 subunit of the SARS-CoV-2 spike …; experiment: dose-response ELISA
[10] = molecular target: T6, SARS-CoV-2 spike (S) protein trimer, …
[11] = molecular target: T5, S1 subunit of the SARS-CoV-2 spike …; experiment: ELISA screening, antibody concentration not given
[12] = molecular target: T1, SARS-CoV-2 nucleocapsid (N) protein; experiment: ELISA screening, antibody concentration not given
[13] = molecular target: T6, SARS-CoV-2 spike (S) protein trimer, …; experiment: ELISA screening, antibody concentration not given
[14] = molecular target: T2, S2 subunit of the SARS-CoV-2 spike …; experiment: ELISA screening, antibody concentration not given
[15] = molecular target: T6, SARS-CoV-2 spike (S) protein trimer, …; experiment: dose-response ELISA on coated spike antigen
[16] = molecular target: SARS-CoV (2003) spike protein borne on lentiviral pseudovirus (SARS-CoV (2003), UniProt P59594 14-1255); experiment: cell-based or functional assay

B1: antibody 1589 (antibody, V domains shown)
VH: EVQLVESGGGLIQVGGSLRLSCAASGLTVTSNYMNWVRQGPGKGLEWVSLIYSGGTTYYADSVKGRFTISRDDSKNTLYLQMNSLRAEDTAVYYCARPIVGARSGMDVWGQGTAVTVSS
VL: DIQMTQSPSSLSASVGDRVTITCQASQDINKYLNWYQQKPGKAPKLLIYDASNLETGVPSRFSGSGSGTDFTFTISSLQPEDLATYYCHQFDNLPGTFGGGTKVEIK
binding result [1]: no binding (tested: 0.1 ug/mL)
binding result [2]: no binding (tested: 0.1 ug/mL)
binding result (MERS-COV (S1+S2)): no binding (tested: 10000 ng/ml)
binding result (MERS-COV (S2)): no binding (tested: 10000 ng/ml)
Pseudo Neut, WA1/2020 IC50 (pM) [3]: 1170 pM

B2: antibody 2793 (antibody, V domains shown)
VH: QVQLVQSGAEVKKPGASVKVSCKVSGFTLPELSIHWVRQAPGKGLEWMGGFDPEDAKTIYAQKFQGRVTMTEDTSTDIAYMELNSLRSDDTAVYYCATGSPFGVVGNWLDPWGQGTLVTVSS
VL: QSALTQPASVSGSPGQSITISCTGTSSDVGDFSYVSWYQQHPGKAPKLMIYEVTKRPSGVSNRFSGSKSGNTASLTISGLQTEDEADYYCTSYTSSRLVLFGGGTKLTVL
binding result (MERS-COV (S1+S2)): no binding (tested: 10000 ng/ml)
binding result (MERS-COV (S2)): no binding (tested: 10000 ng/ml)
binding result [4]: no binding (tested: 10000 ng/ml)
binding result [5]: no binding (tested: 0.1 ug/mL)
EC50 [6]: 0.113 nM
EC50 [7]: 0.068 nM
Kd [8]: 0.398 nM

B3: antibody 2432 (antibody, V domains shown)
VH: QVQLVQSGAEVKKPGSSVKVSCKASGDTFSSYAISWVRQAPGQGLEWLGGIIPIFGSADYAQKFQGRVTITADEFTSTAYMELSSLRSEDTAVYFCAREKYGDYGEGPLYNFDYWGQGTLVTVSS
VL: not shown
binding result [9]: no binding
EC50 [7]: 0.024 nM
Kd [10]: 0.243 nM

B4: antibody 1959 (antibody, V domains shown)
VH: QVQLVQSGTEVKKPGSSVRVSCQASGDTFTSHAIIWIRQAPGQGLEYLGRIIPVLDITNAAQRFLGRLTLTADKSTTTAYMELSSLRSEDTAVYYCARAPFGLIVMYDHWGQGTLVTVTA
VL: EIVLTQSPGTLSLSPGERATLSCRASQSVSGNFLAWYQQKPGQAPRLLIHETSKRATGIPDRVSGGGSGTDFTLTISRLEPEDFAVYHCQQYGTTAVTFGQGTRLDMK
binding result [11]: no binding (tested: not printed)
binding result [12]: no binding (tested: not printed)
binding result [13]: no binding (tested: not printed)
binding result [14]: no binding (tested: not printed)

B5: antibody 2606 (antibody, V domains shown)
VH: EVQLVESGGGLVKPGGSLRLSCAASGFTFSSYSMNWVRQAPGKGLEWVSSITSSSGYMYYADSVKGRFTISRDNAKNSLYLQLNSLRAEDTAVYYCAKDSAFDLWEVRSYYYVMDVWGQGTTVTVSS
VL: not shown
binding result [9]: no binding
EC50 [7]: 0.057 nM
Kd [10]: 0.00787 nM

B6: antibody 1439 (antibody, V domains shown)
VH: QVQLQESGPGLVKPSETLSLTCTVSGDSISTYYWSWIRQPPGKGLEWIGYIHYSGSTNYNPSLKSRVAVSVDTSKNQFSLKLSSVTAADTAVYYCARGGGVFGVVINFDYWGQGILVTVSS
VL: NFMLTQPYSVSESPGKTVTISCTRSSGSIASNYVQWYQQRPGSAPTTVIYEDNQRPSGVPDRFSGSIDSSSNSASLTISGLKTEDEADYYCQSRDSSNPVVFGGGTKLTVL
binding result (MERS-COV (S1+S2)): no binding (tested: 10000 ng/ml)
binding result (MERS-COV (S2)): no binding (tested: 10000 ng/ml)
EC50 (read off the curve) [15]: ~100 ng/mL
Pseudo Neut, WA1/2020 IC50 (pM) [3]: 30200 pM
Pseudo Neut, SARS-CoV 2003 IC50 [16]: 29 nM

B7: antibody 1915 (antibody, V domains shown)
VH: QVQLVESGGGVVQPGRSLRLSCAASGFTFSSYAMHWVRQAPGKGLEWVAVISYDGSNKYYADSVKGRFTISRDNSKNTLYLQMDSLRAQDTAVYYCATPRDMFSSGWSSPFDYWGQGTLVTVSS
VL: DIQMTQSPSSLSASVGDRVTITCQASQDISIYLTWYQQKPGKAPKLLIYGASNLEVEVPSRFSGSGSGTEFTLTISSLQPEDFATYFCQHSDDLPVTFGGGTKVEVK
binding result [11]: no binding (tested: not printed)
binding result [12]: no binding (tested: not printed)
binding result [13]: no binding (tested: not printed)
binding result [14]: no binding (tested: not printed)
